In article doi:10.1101/2022.09.14.507982 (bioRxiv, 2022):
“And” between values parts separate entries of the source, which are not always exact repeats. Identical values can stand only once.

Target: F-actin (filamentous actin from rabbit muscle) (rabbit, UniProt P68135 1-377)
Test: co-sedimentation

Kd: 2110 nM and 3100 nM
B1: 90 kDa isoform of palladin (natural protein)
chain: MSALASRSAPAMQSSGSFNYARPKQFIAAQNLGPASGHGTPASSPSSSSLPSPMSPTPRQFGRAPVPPFAQPFGAEPEAPWGSSSPSPPPPPPPVFSPTAAFPVPDVFPLPPPPPPLPSPGQASHCSSPATRFGHSQTPAAFLSALLPSQPPPAAVNALGLPKGVTPAGFPKKASRTARIASDEEIQGTKDAVIQDLERKLRFKEDLLNNGQPRLTYEERMARRLLGADSATVFNIQEPEEETANQEYKVSSCEQRLISEIEYRLERSPVDESGDEVQYGDVPVENGMAPFFEMKLKHYKIFEGMPVTFTCRVAGNPKPKIYWFKDGKQISPKSDHYTIQRDLDGTCSLHTTASTLDDDGNYTIMAANPQGRISCTGRLMVQAVNQRGRSPRSPSGHPHVRRPRSRSRDSGDENEPIQERFFRPHFLQAPGDLTVQEGKLCRMDCKVSGLPTPDLSWQLDGKPVRPDSAHKMLVRENGVHSLIIEPVTSRDAGIYTCIATNRAGQNSFSLELVVAAKEAHKPPVFIEKLQNTGVADGYPVRLECRVLGVPPPQIFWKKENESLTHSTDRVSMHQDNHGYICLLIQGATKEDAGWYTVSAKNEAGIVSCTARLDVYTQWHQQSQSTKPKKVRPSASRYAALSDQGLDIKAAFQPEANPSHLTLNTALVESEDL
